How the values were obtained:
alpha-lactalbumin = molecular target: T1, alpha-lactalbumin (UniProt P00711); assay: QCM bond rupture sandwich; conditions: 100 ng/mL; sandwich with aptamer II beads; 5'-SH-(CH2)6; 30 °C, 70 min per binding step; aptamer I 3 μmol/L on gold with MCH block; aptamer II beads stored in 10 mmol/L PBS; binding buffer, salt and pH not stated
T1 sequence: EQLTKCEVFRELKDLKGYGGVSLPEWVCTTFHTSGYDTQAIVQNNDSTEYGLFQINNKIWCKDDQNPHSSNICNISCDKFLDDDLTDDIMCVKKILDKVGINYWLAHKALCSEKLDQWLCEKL

lactoferrin (LF) [1] = molecular target: T2, lactoferrin (LF) (UniProt P24627 20-708); assay: QCM bond rupture sandwich; cyclic voltammetry; aptamer I on gold, 100 ng/mL LF; 30 °C, 70 min per binding step; aptamer I 3 μmol/L on gold with MCH block; aptamer II beads stored in 10 mmol/L PBS; binding buffer, salt and pH not stated; conditions: protein: commercial
T2 sequence (P24627 20-708): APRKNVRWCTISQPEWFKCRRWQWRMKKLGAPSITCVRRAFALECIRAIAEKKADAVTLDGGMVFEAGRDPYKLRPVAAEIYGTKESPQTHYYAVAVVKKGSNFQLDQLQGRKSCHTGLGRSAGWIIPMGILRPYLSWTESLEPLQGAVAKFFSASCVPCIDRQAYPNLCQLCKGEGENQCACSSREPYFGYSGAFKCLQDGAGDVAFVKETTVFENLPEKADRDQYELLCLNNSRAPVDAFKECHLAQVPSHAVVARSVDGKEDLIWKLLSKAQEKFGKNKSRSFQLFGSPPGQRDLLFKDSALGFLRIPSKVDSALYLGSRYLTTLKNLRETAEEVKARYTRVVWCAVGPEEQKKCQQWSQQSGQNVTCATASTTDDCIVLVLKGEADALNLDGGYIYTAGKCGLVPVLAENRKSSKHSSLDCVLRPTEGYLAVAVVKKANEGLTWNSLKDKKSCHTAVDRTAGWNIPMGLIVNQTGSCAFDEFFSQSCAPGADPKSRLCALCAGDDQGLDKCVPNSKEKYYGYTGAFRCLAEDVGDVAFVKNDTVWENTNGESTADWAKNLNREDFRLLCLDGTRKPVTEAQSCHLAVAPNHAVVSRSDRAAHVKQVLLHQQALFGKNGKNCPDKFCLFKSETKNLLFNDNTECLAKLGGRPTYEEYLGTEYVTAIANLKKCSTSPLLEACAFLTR

lactoferrin (LF) [2] = molecular target: T2, lactoferrin (LF); assay: QCM bond rupture sandwich; cyclic voltammetry; aptamer II on magnetic beads, LF captured by aptamer I; 1180 Hz shift at 100 ng/mL LF; 30 °C, 70 min per binding step; aptamer I 3 μmol/L on gold with MCH block; aptamer II beads stored in 10 mmol/L PBS; binding buffer, salt and pH not stated; conditions: protein: commercial

## TGGTGCTGCCCCTAGTCTCCGGCTGCTTCTTGG [aptamer I]
alpha-lactalbumin
  binding signal (% of LF signal): 8.39

## TGGTGCTGCCCCTAGTCTCCGGCTGCTTCTTGG (ssDNA, 5'-SH-(CH2)6) [aptamer I]
Lactoferrin (LF) [1]
  binding result: binds

## AGGCAGGACACCGTAACCGGTGCATCTATGGCTACTAGCTTTTCCTGCCT (ssDNA, 5'-SH-(CH2)6 as printed) [aptamer II]
Lactoferrin (LF) [2]
  binding result: binds
